What all share (assay): alanine scan, flow cytometry on transfected cells
For assay [1], the target named is human CXCL13 F25A (human) (UniProt O43927).
The target in assay [2] is human CXCL13 P22A (human) (UniProt O43927).
Assay [3] addresses human CXCL13 R24A (human) (UniProt O43927).
Assay [4] deals with human CXCL13 F20A (human) (UniProt O43927).
human CXCL13 F20A (human), sequence (O43927 23-109 F42A): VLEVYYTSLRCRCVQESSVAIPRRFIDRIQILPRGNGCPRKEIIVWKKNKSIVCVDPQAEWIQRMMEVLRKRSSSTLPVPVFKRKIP

human CXCL13 F25A (human), sequence (O43927 23-109 F47A): as the sequence (O43927 23-109 F42A) above, with A20F, F25A counted along it
human CXCL13 R24A (human), sequence (O43927 23-109 R46A): as the sequence (O43927 23-109 F42A) above, with A20F, R24A counted along it
human CXCL13 P22A (human), sequence (O43927 23-109 P44A): as the sequence (O43927 23-109 F42A) above, with A20F, P22A counted along it

Consider Control Fab, for which the Binding reactivity (% WT) in assay [1] is 127 % WT; in assay [2], 97.4 % WT; in assay [3], 88 % WT; in assay [4] it was 110 % WT.
